In article PMC5737361 (Nucleic Acids Research, 2017):

Target: T1, Sulfolobus solfataricus PolB1, unlabelled (Sulfolobus solfataricus, UniProt P26811 1-882)
T1 sequence (looked up): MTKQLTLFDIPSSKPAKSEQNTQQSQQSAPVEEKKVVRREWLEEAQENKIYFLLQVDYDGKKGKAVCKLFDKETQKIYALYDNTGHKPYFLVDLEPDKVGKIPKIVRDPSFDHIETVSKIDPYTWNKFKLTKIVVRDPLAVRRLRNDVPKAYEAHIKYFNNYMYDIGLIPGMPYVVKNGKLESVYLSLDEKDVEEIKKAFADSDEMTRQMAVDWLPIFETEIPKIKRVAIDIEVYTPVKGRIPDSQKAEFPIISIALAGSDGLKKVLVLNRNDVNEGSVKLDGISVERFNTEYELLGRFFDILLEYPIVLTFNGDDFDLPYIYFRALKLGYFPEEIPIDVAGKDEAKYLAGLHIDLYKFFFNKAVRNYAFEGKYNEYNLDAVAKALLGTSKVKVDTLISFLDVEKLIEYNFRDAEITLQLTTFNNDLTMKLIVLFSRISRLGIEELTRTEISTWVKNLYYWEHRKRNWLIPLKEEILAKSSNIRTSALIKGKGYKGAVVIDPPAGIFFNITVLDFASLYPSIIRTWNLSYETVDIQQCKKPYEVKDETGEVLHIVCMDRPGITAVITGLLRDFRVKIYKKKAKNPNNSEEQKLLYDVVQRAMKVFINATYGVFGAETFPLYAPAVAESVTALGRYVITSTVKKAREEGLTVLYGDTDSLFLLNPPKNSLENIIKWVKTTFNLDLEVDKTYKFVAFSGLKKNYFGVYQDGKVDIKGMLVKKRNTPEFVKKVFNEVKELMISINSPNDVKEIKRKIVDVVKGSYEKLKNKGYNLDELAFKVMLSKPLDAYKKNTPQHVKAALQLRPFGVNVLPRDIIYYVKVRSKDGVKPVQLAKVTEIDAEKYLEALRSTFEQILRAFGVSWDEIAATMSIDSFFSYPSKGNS
Assay: SEC

binding result: binds
B1: Sulfolobus solfataricus Dpo4 (PolY), wild type, unlabelled (enzyme)
chain: MIVLFVDFDYFYAQVEEVLNPSLKGKPVVVCVFSGRFEDSGAVATANYEARKFGVKAGIPIVEAKKILPNAVYLPMRKEVYQQVSSRIMNLLREYSEKIEIASIDEAYLDISDKVRDYREAYNLGLEIKNKILEKEKITVTVGISKNKVFAKIAADMAKPNGIKVIDDEEVKRLIRELDIADVPGIGNITAEKLKKLGINKLVDTLSIEFDKLKGMIGEAKAKYLISLARDEYNEPIRTRVRKSIGRIVTMKRNSRNLEEIKPYLFRAIEESYYKLDKRIPKAIHVVAVTEDLDIVSRGRTFPHGISKETAYSESVKLLQKILEEDERKIRRIGVRFSKFIEAIGLDKFFDT
